# Source: publication PMC9482650, “Quantitative fragmentomics allow affinity mapping of interactomes” (Nature Communications, 2022)
# T1: APBA3_1, O96018
# T1 sequence (O96018 389-490, limits assumed, looked up): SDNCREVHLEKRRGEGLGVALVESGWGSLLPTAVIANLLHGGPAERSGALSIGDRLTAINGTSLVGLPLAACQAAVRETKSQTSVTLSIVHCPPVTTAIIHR
# T2: DFNB31_1, Q9P202
# T2 sequence (Q9P202 135-233, limits assumed, looked up): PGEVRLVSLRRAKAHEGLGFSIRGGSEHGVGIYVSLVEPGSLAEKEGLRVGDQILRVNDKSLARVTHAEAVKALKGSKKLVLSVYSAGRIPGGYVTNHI
# T3: DFNB31_3, Q9P202
# T3 sequence (Q9P202 811-907, limits assumed, looked up): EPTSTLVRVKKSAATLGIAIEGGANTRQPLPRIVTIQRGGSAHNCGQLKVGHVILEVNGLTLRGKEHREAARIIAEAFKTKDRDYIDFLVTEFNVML
# T4: DLG3_2, Q92796
# T4 sequence (Q92796 221-321, limits assumed, looked up): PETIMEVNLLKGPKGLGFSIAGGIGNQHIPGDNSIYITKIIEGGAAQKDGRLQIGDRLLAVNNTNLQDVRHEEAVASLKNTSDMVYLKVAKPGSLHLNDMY
# T5: GRIP1_4, Q9Y3R0
# T5 sequence (Q9Y3R0 467-571, limits assumed, looked up): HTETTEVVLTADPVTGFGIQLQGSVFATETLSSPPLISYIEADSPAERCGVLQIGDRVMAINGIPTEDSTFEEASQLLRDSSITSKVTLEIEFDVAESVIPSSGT
# T6: HTRA3, P83110
# T6 sequence (P83110 354-453, limits assumed, looked up): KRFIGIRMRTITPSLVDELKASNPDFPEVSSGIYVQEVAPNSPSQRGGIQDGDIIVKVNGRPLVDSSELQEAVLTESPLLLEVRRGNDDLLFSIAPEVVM
# T7: MPDZ_12, O75970
# T7 sequence (O75970 1857-1958, limits assumed, looked up): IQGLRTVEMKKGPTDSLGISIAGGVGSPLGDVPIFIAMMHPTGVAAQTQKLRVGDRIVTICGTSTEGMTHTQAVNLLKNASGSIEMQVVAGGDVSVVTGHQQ
# T8: MPP2, Q14168
# T8 sequence (Q14168 180-250, limits assumed, looked up): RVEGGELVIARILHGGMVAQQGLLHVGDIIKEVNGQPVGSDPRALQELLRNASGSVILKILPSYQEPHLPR
# T9: PDZRN3_1, Q9UPQ7
# T9 sequence (Q9UPQ7 244-349, limits assumed, looked up): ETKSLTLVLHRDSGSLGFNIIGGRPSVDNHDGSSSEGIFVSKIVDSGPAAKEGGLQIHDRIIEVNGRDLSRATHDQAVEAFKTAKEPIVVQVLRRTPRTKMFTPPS
# T10: RADIL, Q96JH8
# T10 sequence (Q96JH8 971-1071, limits assumed, looked up): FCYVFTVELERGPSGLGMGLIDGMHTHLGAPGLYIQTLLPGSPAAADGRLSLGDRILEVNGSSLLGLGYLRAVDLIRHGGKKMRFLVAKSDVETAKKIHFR
# T11: TIAM2, Q8IVF5
# T11 sequence (Q8IVF5 885-986, limits assumed, looked up): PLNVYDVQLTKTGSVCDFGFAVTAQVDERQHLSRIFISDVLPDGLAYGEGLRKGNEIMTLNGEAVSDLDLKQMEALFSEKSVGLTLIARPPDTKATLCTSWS
# Molecular target: T1, APBA3_1, O96018
# Assay: holdup assay
# Parameters: key: below the threshold = too weak to quantify, mostly under pKd 3.1 to 4
# Conditions: plain residues with an end cap or a label only (N-terminal biotin on a linker: ttds)
row,Binder,pKd
1,"SKPTRRETEV [HPV35-E6, P27228]",below the threshold
2,"EMDRRPATVV [PLCB4, Q15147]",below the threshold

# Molecular target: T2, DFNB31_1, Q9P202
# Assay: holdup assay
# Parameters: key: below the threshold = too weak to quantify, mostly under pKd 3.1 to 4
# Conditions: plain residues with an end cap or a label only (N-terminal biotin on a linker: ttds)
row,Binder,pKd
1,"SKPTRRETEV [HPV35-E6, P27228]",below the threshold
2,"EMDRRPATVV [PLCB4, Q15147]",3.53

# Molecular target: T3, DFNB31_3, Q9P202
# Assay: holdup assay
# Parameters: key: below the threshold = too weak to quantify, mostly under pKd 3.1 to 4
# Conditions: plain residues with an end cap or a label only (N-terminal biotin on a linker: ttds)
row,Binder,pKd
1,"SKPTRRETEV [HPV35-E6, P27228]",below the threshold
2,"EMDRRPATVV [PLCB4, Q15147]",3.69

# Molecular target: T4, DLG3_2, Q92796
# Assay: holdup assay
# Parameters: key: below the threshold = too weak to quantify, mostly under pKd 3.1 to 4
# Conditions: plain residues with an end cap or a label only (N-terminal biotin on a linker: ttds)
row,Binder,pKd
1,"SKPTRRETEV [HPV35-E6, P27228]",5.49
2,"EMDRRPATVV [PLCB4, Q15147]",4.24

# Molecular target: DLG5_1, Q8TDM6
# Sequence (Q8TDM6 617-713): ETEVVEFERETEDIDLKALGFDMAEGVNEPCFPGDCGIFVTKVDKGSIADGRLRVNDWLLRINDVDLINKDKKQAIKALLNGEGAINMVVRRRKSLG
# Assay: holdup assay
# Parameters: key: below the threshold = too weak to quantify, mostly under pKd 3.1 to 4
# Conditions: plain residues with an end cap or a label only (N-terminal biotin on a linker: ttds)
row,Binder,pKd
1,"SKPTRRETEV [HPV35-E6, P27228]",below the threshold
2,"EMDRRPATVV [PLCB4, Q15147]",below the threshold

# Molecular target: FRMPD3, Q5JV73
# Sequence (Q5JV73 12-100): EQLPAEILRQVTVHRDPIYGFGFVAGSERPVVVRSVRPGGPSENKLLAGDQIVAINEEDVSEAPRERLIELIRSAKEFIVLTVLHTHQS
# Assay: holdup assay
# Parameters: key: below the threshold = too weak to quantify, mostly under pKd 3.1 to 4
# Conditions: plain residues with an end cap or a label only (N-terminal biotin on a linker: ttds)
row,Binder,pKd
1,"SKPTRRETEV [HPV35-E6, P27228]",below the threshold
2,"EMDRRPATVV [PLCB4, Q15147]",3.64

# Molecular target: GORASP2, Q9H8Y8
# Assay: holdup assay
# Parameters: key: below the threshold = too weak to quantify, mostly under pKd 3.1 to 4
# Conditions: plain residues with an end cap or a label only (N-terminal biotin on a linker: ttds)
row,Binder,pKd
1,"SKPTRRETEV [HPV35-E6, P27228]",3.82
2,"EMDRRPATVV [PLCB4, Q15147]",4.23

# Molecular target: GRASP, Q7Z6J2
# Sequence (Q7Z6J2 96-193): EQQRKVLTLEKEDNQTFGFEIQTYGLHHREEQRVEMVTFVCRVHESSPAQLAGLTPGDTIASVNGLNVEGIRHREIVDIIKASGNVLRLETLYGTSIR
# Assay: holdup assay
# Parameters: key: below the threshold = too weak to quantify, mostly under pKd 3.1 to 4
# Conditions: plain residues with an end cap or a label only (N-terminal biotin on a linker: ttds)
row,Binder,pKd
1,"SKPTRRETEV [HPV35-E6, P27228]",below the threshold
2,"EMDRRPATVV [PLCB4, Q15147]",4.01

# Molecular target: GRID2IP_2, A4D2P6
# Sequence (A4D2P6 272-370): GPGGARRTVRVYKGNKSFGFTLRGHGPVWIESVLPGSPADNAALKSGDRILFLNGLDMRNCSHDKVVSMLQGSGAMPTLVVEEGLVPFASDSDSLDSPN
# Assay: holdup assay
# Parameters: key: below the threshold = too weak to quantify, mostly under pKd 3.1 to 4
# Conditions: plain residues with an end cap or a label only (N-terminal biotin on a linker: ttds)
row,Binder,pKd
1,"SKPTRRETEV [HPV35-E6, P27228]",below the threshold
2,"EMDRRPATVV [PLCB4, Q15147]",3.93

# Molecular target: T5, GRIP1_4, Q9Y3R0
# Assay: holdup assay
# Parameters: key: below the threshold = too weak to quantify, mostly under pKd 3.1 to 4
# Conditions: plain residues with an end cap or a label only (N-terminal biotin on a linker: ttds)
row,Binder,pKd
1,"SKPTRRETEV [HPV35-E6, P27228]",below the threshold
2,"EMDRRPATVV [PLCB4, Q15147]",below the threshold

# Molecular target: GRIP2_4, Q9C0E4
# Sequence (Q9C0E4 446-548): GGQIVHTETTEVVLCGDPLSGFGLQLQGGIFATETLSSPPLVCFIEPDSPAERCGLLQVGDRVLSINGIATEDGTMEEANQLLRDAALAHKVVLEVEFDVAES
# Assay: holdup assay
# Parameters: key: below the threshold = too weak to quantify, mostly under pKd 3.1 to 4
# Conditions: plain residues with an end cap or a label only (N-terminal biotin on a linker: ttds)
row,Binder,pKd
1,"SKPTRRETEV [HPV35-E6, P27228]",below the threshold
2,"EMDRRPATVV [PLCB4, Q15147]",below the threshold

# Molecular target: GRIP2_6, Q9C0E4
# Sequence (Q9C0E4 648-740): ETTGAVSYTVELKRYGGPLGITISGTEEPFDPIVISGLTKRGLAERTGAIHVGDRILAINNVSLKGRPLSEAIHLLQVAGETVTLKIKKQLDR
# Assay: holdup assay
# Parameters: key: below the threshold = too weak to quantify, mostly under pKd 3.1 to 4
# Conditions: plain residues with an end cap or a label only (N-terminal biotin on a linker: ttds)
row,Binder,pKd
1,"SKPTRRETEV [HPV35-E6, P27228]",below the threshold
2,"EMDRRPATVV [PLCB4, Q15147]",3.67

# Molecular target: T6, HTRA3, P83110
# Assay: holdup assay
# Parameters: key: below the threshold = too weak to quantify, mostly under pKd 3.1 to 4
# Conditions: plain residues with an end cap or a label only (N-terminal biotin on a linker: ttds)
row,Binder,pKd
1,"SKPTRRETEV [HPV35-E6, P27228]",below the threshold
2,"EMDRRPATVV [PLCB4, Q15147]",below the threshold

# Molecular target: IL16_3, Q14005
# Sequence (Q14005 1107-1207): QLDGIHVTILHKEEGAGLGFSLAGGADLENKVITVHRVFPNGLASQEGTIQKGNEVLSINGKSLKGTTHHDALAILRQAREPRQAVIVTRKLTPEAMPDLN
# Assay: holdup assay
# Parameters: key: below the threshold = too weak to quantify, mostly under pKd 3.1 to 4
# Conditions: plain residues with an end cap or a label only (N-terminal biotin on a linker: ttds)
row,Binder,pKd
1,"SKPTRRETEV [HPV35-E6, P27228]",below the threshold
2,"EMDRRPATVV [PLCB4, Q15147]",below the threshold

# Molecular target: IL16_4, Q14005
# Sequence (Q14005 1229-1329): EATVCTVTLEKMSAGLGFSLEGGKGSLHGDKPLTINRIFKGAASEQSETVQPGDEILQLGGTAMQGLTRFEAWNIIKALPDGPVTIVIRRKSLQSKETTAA
# Assay: holdup assay
# Parameters: key: below the threshold = too weak to quantify, mostly under pKd 3.1 to 4
# Conditions: plain residues with an end cap or a label only (N-terminal biotin on a linker: ttds)
row,Binder,pKd
1,"SKPTRRETEV [HPV35-E6, P27228]",below the threshold
2,"EMDRRPATVV [PLCB4, Q15147]",below the threshold

# Molecular target: Inadl_9, Q8NI35
# Sequence (Q8NI35 1530-1615): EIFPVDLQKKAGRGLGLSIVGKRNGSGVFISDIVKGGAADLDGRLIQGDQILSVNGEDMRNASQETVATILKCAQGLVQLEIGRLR
# Assay: holdup assay
# Parameters: key: below the threshold = too weak to quantify, mostly under pKd 3.1 to 4
# Conditions: plain residues with an end cap or a label only (N-terminal biotin on a linker: ttds)
row,Binder,pKd
1,"SKPTRRETEV [HPV35-E6, P27228]",below the threshold

# Molecular target: LNX1_2, Q8TBB1
# Sequence (Q8TBB1 371-470): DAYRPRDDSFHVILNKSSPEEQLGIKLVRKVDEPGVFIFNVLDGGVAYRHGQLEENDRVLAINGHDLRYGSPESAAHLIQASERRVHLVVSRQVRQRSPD
# Assay: holdup assay
# Parameters: key: below the threshold = too weak to quantify, mostly under pKd 3.1 to 4
# Conditions: plain residues with an end cap or a label only (N-terminal biotin on a linker: ttds)
row,Binder,pKd
1,"SKPTRRETEV [HPV35-E6, P27228]",below the threshold
2,"EMDRRPATVV [PLCB4, Q15147]",3.67

# Molecular target: MAGI2_2, Q86UL8
# Sequence (Q86UL8 410-522): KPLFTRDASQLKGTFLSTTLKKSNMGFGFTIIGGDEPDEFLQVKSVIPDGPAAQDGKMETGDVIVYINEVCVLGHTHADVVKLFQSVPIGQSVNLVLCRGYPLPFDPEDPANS
# Assay: holdup assay
# Parameters: key: below the threshold = too weak to quantify, mostly under pKd 3.1 to 4
# Conditions: plain residues with an end cap or a label only (N-terminal biotin on a linker: ttds)
row,Binder,pKd
1,"SKPTRRETEV [HPV35-E6, P27228]",4.93
2,"EMDRRPATVV [PLCB4, Q15147]",4.31

# Molecular target: T7, MPDZ_12, O75970
# Assay: holdup assay
# Parameters: key: below the threshold = too weak to quantify, mostly under pKd 3.1 to 4
# Conditions: plain residues with an end cap or a label only (N-terminal biotin on a linker: ttds)
row,Binder,pKd
1,"SKPTRRETEV [HPV35-E6, P27228]",below the threshold
2,"EMDRRPATVV [PLCB4, Q15147]",below the threshold

# Molecular target: T8, MPP2, Q14168
# Assay: holdup assay
# Parameters: key: below the threshold = too weak to quantify, mostly under pKd 3.1 to 4
# Conditions: plain residues with an end cap or a label only (N-terminal biotin on a linker: ttds)
row,Binder,pKd
1,"SKPTRRETEV [HPV35-E6, P27228]",below the threshold
2,"EMDRRPATVV [PLCB4, Q15147]",below the threshold

# Molecular target: NOS1, P29475
# Sequence (P29475 9-101): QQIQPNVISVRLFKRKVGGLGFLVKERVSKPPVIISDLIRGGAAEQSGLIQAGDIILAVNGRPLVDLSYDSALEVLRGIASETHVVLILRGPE
# Assay: holdup assay
# Parameters: key: below the threshold = too weak to quantify, mostly under pKd 3.1 to 4
# Conditions: plain residues with an end cap or a label only (N-terminal biotin on a linker: ttds)
row,Binder,pKd
1,"SKPTRRETEV [HPV35-E6, P27228]",3.74
2,"EMDRRPATVV [PLCB4, Q15147]",4.11

# Molecular target: T9, PDZRN3_1, Q9UPQ7
# Assay: holdup assay
# Parameters: key: below the threshold = too weak to quantify, mostly under pKd 3.1 to 4
# Conditions: plain residues with an end cap or a label only (N-terminal biotin on a linker: ttds)
row,Binder,pKd
1,"SKPTRRETEV [HPV35-E6, P27228]",4.89
2,"EMDRRPATVV [PLCB4, Q15147]",4.08

# Molecular target: PICK1, Q9NRD5
# Sequence (Q9NRD5 17-115): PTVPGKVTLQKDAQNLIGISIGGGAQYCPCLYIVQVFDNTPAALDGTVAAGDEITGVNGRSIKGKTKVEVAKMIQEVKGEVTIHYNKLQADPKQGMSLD
# Assay: holdup assay
# Parameters: key: below the threshold = too weak to quantify, mostly under pKd 3.1 to 4
# Conditions: plain residues with an end cap or a label only (N-terminal biotin on a linker: ttds)
row,Binder,pKd
1,"SKPTRRETEV [HPV35-E6, P27228]",below the threshold
2,"EMDRRPATVV [PLCB4, Q15147]",below the threshold

# Molecular target: T10, RADIL, Q96JH8
# Assay: holdup assay
# Parameters: key: below the threshold = too weak to quantify, mostly under pKd 3.1 to 4
# Conditions: plain residues with an end cap or a label only (N-terminal biotin on a linker: ttds)
row,Binder,pKd
1,"SKPTRRETEV [HPV35-E6, P27228]",below the threshold
2,"EMDRRPATVV [PLCB4, Q15147]",3.99

# Molecular target: T11, TIAM2, Q8IVF5
# Assay: holdup assay
# Parameters: key: below the threshold = too weak to quantify, mostly under pKd 3.1 to 4
# Conditions: plain residues with an end cap or a label only (N-terminal biotin on a linker: ttds)
row,Binder,pKd
1,"SKPTRRETEV [HPV35-E6, P27228]",below the threshold
2,"EMDRRPATVV [PLCB4, Q15147]",below the threshold

# Molecular target: TJP1_3, Q07157
# Sequence (Q07157 416-512): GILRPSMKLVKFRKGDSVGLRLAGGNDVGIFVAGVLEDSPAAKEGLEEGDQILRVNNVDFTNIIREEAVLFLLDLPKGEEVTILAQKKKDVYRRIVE
# Assay: holdup assay
# Parameters: key: below the threshold = too weak to quantify, mostly under pKd 3.1 to 4
# Conditions: plain residues with an end cap or a label only (N-terminal biotin on a linker: ttds)
row,Binder,pKd
1,"SKPTRRETEV [HPV35-E6, P27228]",below the threshold
2,"EMDRRPATVV [PLCB4, Q15147]",below the threshold
